Among the data in patent US20130167269A1 are percent of bound 125I-Cry35Ab1 displaced, Kd and binding site concentration Bmax (pmole/ug BBMV) values, retold here.

As usually defined, the Kd is the concentration at which binding is half-saturated.

Assay [1] has as its target Brush border membrane vesicle (BBMV) preparation from midguts of third instars of the western corn rootworm (Diabrotica virgifera virgifera LeConte) (Diabrotica virgifera virgifera). Briefly: Homologous competition: unlabeled Cry35Ab1 (0-5,000 nM) against 5 nM 125I-Cry35Ab1 on BBMV (0.1 mg/ml); remaining about 50% considered nonspecific.
For assay [2] the target is unchanged.

B1: Chymotrypsin-truncated Cry35Ab1 core protein (protein)
chain: MLDTNKVYEISNHANGLYAATYLSLDDSGVSLMNKNDDDIDDYNLKWFLFPIDDDQYIITSYAANNCKVWNVNNDKINVSTYSSTNSIQKWQIKANGSSYVIQSDNGKVLTAGTGQALGLIRLTDESSNNPNQQWNLTSVQTIQLPQKPIIDTKLKDYPKYSPTGNIDNGTSPQLMGWTLVPCIMVNDPNIDKNTQIKTTPYYILKKYQYWQRAVGSNVALRPHEKKSYTYEWGTEIDQKTTIINTLGFQINIDSGMKFDIPEVGGGTDEIKTQLNEELKIEYSHETKIMEKYQEQSEIDNPTDQSMNSIGFLTITSLELYRYNGSEIRIMQIQTSDNDTYNVTSYPNHQQALL
modifications: 125I-iodinated (Pierce Iodination Beads, Na125I) when used as the labeled ligand; positions not given; unlabeled when used as competitor
Molecule B1 yielded a percent of bound 125I-Cry35Ab1 displaced at approximately 100 nM unlabeled Cry35Ab1 in assay [1] of over 50%. In assay [2], this molecule displayed a Kd of 11.7 nM and a binding site concentration Bmax (pmole/ug BBMV) of 5.19.

B2: Full-length Cry6Aa1 protein (protein)
chain: MIIDSKTTLPRHSLIHTIKLNSNKKYGPGDMTNGNQFIISKQEWATIGAYIQTGLGLPVNEQQLRTHVNLSQDISIPSDFSQLYDVYCSDKTSAEWWNKNLYPLIIKSANDIASYGFKVAGDPSIKKDGYFKKLQDELDNIVDNNSDDDAIAKAIKDFKARCGILIKEAKQYEEAAKNIVTSLDQFLHGDQKKLEGVINIQKRLKEVQTALNQAHGESSPAHKELLEKVKNLKTTLERTIKAEQDLEKKVEYSFLLGPLLGFVVYEILENTAVQHIKNQIDEIKKQLDSAQHDLDRDVKIIGMLNSINTDIDNLYSQGQEAIKVFQKLQGIWATIGAQIENLRTTSLQEVQDSDDADEIQIELEDASDAWLVVAQEARDFTLNAYSTNSRQNLPINVISDSCNCSTTNMTSNQYSNPTTNMTSNQYMISHEYTSLPNNFMLSRNSNLEYKCPENNFMIYWYNNSDWYNNSDWYNN
modifications: 125I-iodinated (Pierce Iodination Beads, Na125I) in the saturation assay; positions not given; unlabeled when used as competitor
In assay [2], B2 registered a Kd of 7.99 nM and a binding site concentration Bmax (pmole/ug BBMV) of 2.71.
